Where no end group is shown, it is not given here. Fc = antibody heavy-chain constant region Fc (hinge-CH2-CH3)
T1: NRP2-b1b2 (275-595) protein (UniProt O60462 275-595)
T1 construct: range 275-595; also called neuropilin-2 b1b2 protein
T1 sequence (looked up): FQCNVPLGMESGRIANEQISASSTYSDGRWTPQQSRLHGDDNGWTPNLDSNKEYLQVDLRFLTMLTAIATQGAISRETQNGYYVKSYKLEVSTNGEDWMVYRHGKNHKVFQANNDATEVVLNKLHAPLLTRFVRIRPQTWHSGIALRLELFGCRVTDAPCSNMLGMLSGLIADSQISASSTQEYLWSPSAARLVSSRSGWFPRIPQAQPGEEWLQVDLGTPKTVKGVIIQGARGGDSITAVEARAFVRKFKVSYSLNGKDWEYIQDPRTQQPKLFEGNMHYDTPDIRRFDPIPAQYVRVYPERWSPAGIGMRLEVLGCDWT

B1: Fc-TPP1 fusion protein (Fc fusion, not shown: a dimerising Fc or GST; small tags and cut ends)
chain: Fc-GGGGSGGGGSGGGGSHTPGNSNQFVLTSTRPPR
modifications: also: Fc letters not given here, disulfide-linked homodimer through Fc hinge
notes: Expressed in HEK293-F and purified on Protein A; disulfide-linked dimer
B2: Fc-TPP8 fusion protein (Fc fusion, not shown: a dimerising Fc or GST; small tags and cut ends)
chain: Fc-GGGGSGGGGSGGGGSHTPGIATRTPR
modifications: also: Fc letters not given here, disulfide-linked homodimer through Fc hinge
notes: as for B1
B3: synthetic peptide TPP11 not fused to Fc (peptide)
peptide: HTPGNSKPTRTPRR
modifications: also: biotinylated for ELISA, position not given here
notes: also called TPP11 peptide; synthesized TPP11 peptide

Tests used:
[1] = target: T2, NRP1-b1b2 (273-586) protein (UniProt O14786 273-586); assay: ELISA on immobilised NRP1-b1b2, absorbance at 405 nm [A]
T2 construct: range 273-586; Prepared according to Appleton et al. 2007; Biotinylated (Sulfo-NHS-LC-biotin) for the yeast display FACS; unlabelled in ELISA and SPR; also called neuropilin-1 b1b2 protein; biotinylated NRP1-b1b2
Experimental: (§1) 1 μg of each of NRP1-b1b2 (273-586) protein, NRP2-b1b2 (275-595) protein and the control group VEGFR2 (46-753) was immobilized in each well of a 96-well EIA/RIA plate (COSTAR Corning In., USA) at room temperature for 1 hour, and then washed three times with 0.1% PBST (0.1% Tween20, pH 7.4, 137 mM NaCl, 10 mM Phosphate, 2.7 mM KCl, SIGMA-ALDRICH co., USA) for 10 minutes. After binding with 5% skim milk (5% Skim milk, pH 7.4, 137 mM NaCl, 10 mM Phosphate, 2.7 mM KCl, SIGMA-ALDRICH co., USA) for 1 hour, each well was washed three times with 0.1% PBST (0.1% Tween20, pH 7.4, 137 mM NaCl, 10 mM Phosphate, 2.7 mM KCl, SIGMA-ALDRICH co., USA) for 10 minutes. […] Each well was bound with AP-conjugated anti-biotin antibody (alkaline phosphatase-conjugated anti-biotin mAb, Sigma, USA), and then reacted with pNPP ([…], SIGMA-ALDRICH co., USA), and the absorbance at 405 nm was measured.

[2] = target: T1, NRP2-b1b2 (275-595) protein; assay: SPR (Biacore 2000), NRP2-b1b2 immobilised on CM5 chip
Experimental: (§2) Specifically, each of NRP1 and NRP2 b1b2 proteins was diluted in 10 mM Na-acetate buffer (pH 4.0), and immobilized on a CM5 sensor chip (GE healthcare, USA) at about 1000 response units (RU). […] After binding and dissociation analysis, regeneration of the CM5 chip was performed by flushing buffer (20 mM NaOH, 1M NaCl, pH10.0) at a flow rate of 30 μl/min for 1 minute.

[3] = target: T2, NRP1-b1b2 (273-586) protein; assay: SPR (Biacore 2000), NRP1-b1b2 immobilised on CM5 chip
Experimental: as §2

[4] = target: T2, NRP1-b1b2 (273-586) protein; assay: SPR; KD on NRP2-b1b2 divided by KD on NRP1-b1b2
Experimental: as §2

[5] = target: T2, NRP1-b1b2 (273-586) protein; assay: SPR; lower end tied to Fc-TPP8 by Table 5 (65.8)
Experimental: as §2

[6] = target: T2, NRP1-b1b2 (273-586) protein; assay: ELISA, biotinylated peptide (100 nM) on coated NRP1-b1b2
Experimental: as §1

[7] = target: T2, NRP1-b1b2 (273-586) protein; assay: competitive ELISA on NRP1-b1b2; TPP11 peptide varied, blocked ligand RPARPAR [10 µM], relative binding (%) [B]

T2 sequence (O14786 273-586 limits assumed, form in doubt): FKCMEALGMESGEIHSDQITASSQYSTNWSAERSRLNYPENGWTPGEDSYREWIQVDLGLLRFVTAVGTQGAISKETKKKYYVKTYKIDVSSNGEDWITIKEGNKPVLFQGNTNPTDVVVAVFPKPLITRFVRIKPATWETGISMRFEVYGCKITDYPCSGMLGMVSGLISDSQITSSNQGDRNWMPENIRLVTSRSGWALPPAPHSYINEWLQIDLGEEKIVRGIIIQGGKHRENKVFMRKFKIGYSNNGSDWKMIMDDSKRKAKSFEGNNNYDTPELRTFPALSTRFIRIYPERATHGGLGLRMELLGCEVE

Row | Binder | EC50 (read off the curve) [1] [nM] | Kd [2] [nM] | Kd [3] [nM] | Binding Affinity Ratio [(KD for NRP2)/KD for NRP1)] [4] | fold higher affinity for NRP1 than for NRP2 [5] [fold] | fold lower affinity than Fc-TPP11 [6] [fold] | IC50 (read off the curve) [7] [nM]
1 | B1 | ~0.5 | 1130 | 1.81 | 625 | – | – | –
2 | B2 | ~3 | 254 | 3.85 | 65.8 | 60 | – | –
3 | B3 | – | – | – | – | – | 100 | ~2000

Reference: patent US20180051064A1 (AJOU UNIVERSITY INDUSTRY ACADEMIC COOPERATION FOUNDATION, published 2018)
